Earlier results on one substance are cited in publication PMC5603210.

This data set has as its target von Willebrand factor (Homo sapiens) (UniProt P04275).

Regarding Factor VIII (from UniProt P00451), the Kd is 0.5 nM.

As a reminder, the Kd is the equilibrium constant for the complex coming apart.
